The nanobody polyreactivity screen of Harvey et al. (2022)

Assay: yeast display, Sf9 membrane polyspecificity reagent, FACS + sequencing; frameworks hold sequencing errors
Procedure, shortened: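 A synthetic nanobody library was expressed on Saccharomyces cerevisiae BJ5465 by galactose induction for 36–48 hours. The library was stained for 1 hour at 4 °C with 10% biotinylated, detergent-solubilized Sf9 membrane reagent and enriched with streptavidin microbeads before FACS. Low and high (top ~1%) gates were set on anti-HA fluorescence for expression and streptavidin fluorescence for reagent binding, and each polyreactivity label reflects the gate of origin.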

| Sequence | polyreactivity (PSR sort gate) |
| --- | --- |
| QVQLVESGGGLLQAGGSLRLSCAASGITFDGNAMGWYRQAPWKERELVAGISGSGGGTYYADSVKGRFTISRDNAKNTVYLQMNSLKPEDTEVYYCAADTSTSHAYDYWGQGTQVTVSS | low polyreactivity |
| QVQLVESGGGLLQAGGSLRLSCAASGLIFRSYAMGWYRQAPGKERDLVAAITDLFWSTYYADSVKGRFTISRDNAKNTVYLQMNSLKPEDTAVYYCARDDWVYTNVEMDYWGQGTQVTVSS | high polyreactivity |
| QVQLVESGGGLLQAGGSLRLSCAASGLIFVVNDMGCYTQAPGKERELVAAISYSGSSTYGDSVKGRFTISRDNAKNTVYLQMNSMNPEDTAVYYCARGSTVRTRGVGYWGQGTLVTVSS | low polyreactivity |
| QVQLVESGGGLLQAGGSLRLSCAASGLTFAFYVMGWYRQAPGKERELVAAISASGASTYYADSVKGRFTISRDNAKNTVYLQMNSLKPEDTAVYYCAADYAVYSFTEFNYWGQGTQVTVSS | high polyreactivity |
| QVQLVESGGGLLQAGGSLRLSCAASGLTFSKNAMGWYRQATGKERELVATISYSSSRTNYADSVKGRFTISRDNAMNTVYLQMNFLKPEDTAVYYCAARVYKGWPTHYDYWGQGTQVTVSS | high polyreactivity |
| QVQLVESGGGLLQAGGSLRLSCAASGRIFGWYAMGWYRQAPGKERELVAAISRGGTRTNYADSVKGRFTISRDNSKNTVYLQMNSLKPEDTAVYYCAAGGSWCQNGYWGQGTQVTVSS | high polyreactivity |
| QVQLVESGGGLLQAGGSLRLSCAASGRIFSIYAMGWYRPAPGKEREMVAAIRRGGSTSYADSVKGRFTISRDNAKNTVYLLMNSLKPEDTAVYYCAARLRYLGYDYWGQGTQVTVSS | high polyreactivity |
| QVQLVESGGGLLQAGGSLRLSCAASGRIFYYYAMGWYRQAPGKEREFVARNRSSGGSTYADSVKGRFTISRDNAKNTVYLQMNSLKPEDTAVYYCARDGYTAVEYDYWGQGTQVTVSS | low polyreactivity |
| QVQLVESGGGLLQAGGSLRLSCAASGRNFTHNAMGWYRQAPRKERELVAAITSGGRTTYADSVKGRFTISRDNAKNTVYLQMNSLKPEDSAVYYCNADTGLGSLDFDKRDYWGQGTQVTVSS | low polyreactivity |
| QVQLVESGGGLLQAGGSLRLSCAASGRTYYTNAMGWYRQAPGKERELVAAISRGGGRTYYADSVKGRFTISRDNAMNSVYLQMNSLKPEDTAVYYCAASPYQGQGREYYYWGQGTQVTESS | high polyreactivity |
| QVQLVESGGGLLQAGGSLRLSCAASGSIFESYAMGWYRQAPGKERELVAAITSSGDSTYYADSVKGRFTISRDNAKNTVYLQMNSLKPEDTAVYYCAKRVPTYISTAEWGSRYDYWGQGTQVTVSS | low polyreactivity |
| QVQLVESGGGLLQAGGSLRLSCAASGSILDGNAMGWNRQAPGKERELVAAISYSGGSTYYADSVKGRFTISRDNAKNTVYLQIYSLKPEDTAVYYCAAGSISTPGRGVDKPDAYVYWGQGTQVTVSS | low polyreactivity |
| QVQLVESGGGLLQAGGSLRLSCAASGSILGPYAMGWYRQAPGKERELVAGIDATDGSTYYADSVKGRFTISRDNAKNTVYLQMNSLKPEDTAVYYCAAAPYAYYGEYNYWGQGTQVTVSS | low polyreactivity |
| QVQLVESGGGLLQAGGSLRLSCAASGSLFGGYAMAWYRQAPGKEREFGAAISGRGASTYYADSVKGRFTISRDNAKTTVYLQMNSLKPEDTAVYDCNARADGRIDGHSATYGYWGQGTQVTVSS | high polyreactivity |
| QVQLVESGGGLLQAGGSLRLSCAASGSTFEYNAMGWYRQAPGKERELVASSTNYADSVKGRFTISRDNAKNTVYLQMNSLKPEDTAVYYCAREQGVNRNHDNWGQGTQVTVSS | low polyreactivity |
| QVQLVESGGGLLQAGGSLRLSCAASGSTFGYYAMGWYRQAPGKERELVAAITRSGTNTYYADSVKGRFTISRDNAKNTVYLQMNSLKPEDTAVYYCNAVSRRRSDYWGQGTQVTVSS | high polyreactivity |
